# Experimental data taken from article PMC2566891 (Nucleic Acids Research, 2008).
# System: p53/DNA complex (p21 dsDNA)
# Assay: Electrophoretic mobility shift assay
# Assay type: binding
# Conditions: phosphorylated p53 8 µM, p21 DNA 4 µM, 14-3-3γ 0–20 µM; 0.8% agarose gel
molecule,measurement,value
"14-3-3: recombinant 14-3-3 protein (γ isoform in EMSA, Figure 5A) (protein) MDDREDLVYQAKLAEQAERYDEMVESMKKVAGMDVELTVEERNLLSVAYKNVIGARRASWRIISSIEQKEENKGGEDKLKMIREYRQMVETELKLICCDILDVLDKHLIPAANTGESKVFYYKMKGDYHRYLAEFATGNDRKEAAENSLVAYKAASDIAMTELPPTHPIRLGLALNFSVFYYEILNSPDRACRLAKAAFDDAIAELDTLSEESYKDSTLIMQLLRDNLTLWTSDMQGDGEEQNKEALQDVEDENQ",p53/DNA complex formation,enhanced the p53/DNA complex formation
